Positions count from the first letter of the chain named. Names may count otherwise.
Columns and labels:
mouse PD-L1 [1] = molecular target: T1, mouse PD-L1 (mouse, UniProt Q9EP73 19-290); assay: as described for the mutants of Test 3; no separate experiment told for the double mutant
T1 construct: Overexpressed on IIAdL1 cells or DOdKO cells; also called mPD-L1; CD274

mouse PD-L1 [2] = molecular target: T1, mouse PD-L1; assay: as described for the mutants of Test 3 (PD-1-EC staining of cells co-expressing PD-L1)
human PD-L1 [3] = molecular target: T2, human PD-L1 (human, UniProt Q9NZQ7 19-290); assay: flow cytometry; DOdKO-hPD-L1/hCD80 cells pretreated with 30 ug/mL TKMF5, stained with human PD-1-EC
T2 construct: Expressed on IIAdL1 or DOdKO cells; also called hPD-L1

mouse CD80 = molecular target: T3, mouse CD80 (mouse, UniProt Q00609 38-306); assay: flow cytometry, IIAdL1 cells expressing CD80 alone, soluble PD-1-EC
T3 construct: Overexpressed on IIAdL1 cells or DOdKO cells; also called mCD80
T3 sequence: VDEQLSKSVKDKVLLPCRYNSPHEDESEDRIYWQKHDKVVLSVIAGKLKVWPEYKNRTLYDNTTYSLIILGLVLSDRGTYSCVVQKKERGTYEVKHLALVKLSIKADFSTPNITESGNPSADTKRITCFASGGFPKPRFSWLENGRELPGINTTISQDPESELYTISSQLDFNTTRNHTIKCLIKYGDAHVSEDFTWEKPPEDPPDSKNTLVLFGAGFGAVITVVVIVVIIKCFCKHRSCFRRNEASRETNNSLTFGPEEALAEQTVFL

mouse PD-L1 [4] = molecular target: T1, mouse PD-L1; assay: flow cytometry; DOdKO-mPD-L1/mCD80 cells pretreated with 10 ug/ml TKMG48 or control IgG, stained with mouse PD-1-EC; (TKMG48 treated group-control group)/(control IgG group-control group)
human PD-L1 [5] = molecular target: T2, human PD-L1; assay: co-immunoprecipitation, IIAdL1 cells expressing the human molecules, western blot
human PD-L1 [6] = molecular target: T2, human PD-L1; assay: flow cytometry; PD-1-EC staining of IIAdL1 cells (FIG. 29)
human PD-L1 [7] = molecular target: T2, human PD-L1; assay: as described for the mutants of Test 4; no separate experiment told for the double mutant

T1 sequence (Q9EP73 19-290 limits assumed): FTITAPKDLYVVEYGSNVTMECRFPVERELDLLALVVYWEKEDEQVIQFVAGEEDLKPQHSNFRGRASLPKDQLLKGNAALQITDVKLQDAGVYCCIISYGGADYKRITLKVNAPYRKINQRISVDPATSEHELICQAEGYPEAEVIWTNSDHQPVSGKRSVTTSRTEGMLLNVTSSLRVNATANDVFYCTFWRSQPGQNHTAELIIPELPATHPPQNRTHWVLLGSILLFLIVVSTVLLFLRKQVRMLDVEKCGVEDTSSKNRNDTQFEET
T2 sequence (Q9NZQ7 19-290 limits assumed): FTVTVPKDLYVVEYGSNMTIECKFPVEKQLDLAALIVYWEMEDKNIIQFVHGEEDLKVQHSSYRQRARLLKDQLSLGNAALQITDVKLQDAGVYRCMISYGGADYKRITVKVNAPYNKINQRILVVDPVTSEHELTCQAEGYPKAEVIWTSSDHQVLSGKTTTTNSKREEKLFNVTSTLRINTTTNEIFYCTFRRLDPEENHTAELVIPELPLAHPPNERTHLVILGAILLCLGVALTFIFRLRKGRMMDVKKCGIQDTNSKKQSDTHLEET

B1: mouse CD80 with the L96E and L107E mutations (ligand)
chain: T3 sequence with L59E, L70E
- binding result (mouse PD-L1 [1]): no binding

B2: mouse CD80 with the L96E mutation (ligand)
chain: T3 sequence with L59E
notes: also called CD80 L96E
- binding result (mouse PD-L1 [2]): no binding

B3: mouse CD80L107E (ligand)
chain: T3 sequence with L70E
notes: also called L107E mutant
- binding result (mouse PD-L1 [2]): no binding

B4: human PD-1-EC (receptor)
chain: LDSPDRPWNPPTFSPALLVVTEGDNATFTCSFSNTSESFVLNWYRMSPSNQTDKLAAFPEDRSQPGQDCRFRVTQLPNGRDFHMSVVRARRNDSGTYLCGAISLAPKAQIKESLRAELRVTERRAEVPTAHPSPSPRPAGQFQDYKDDDDK
notes: domain: five-stranded coiled coil domain; also called human PD-1 extracellular region soluble chimeric protein; hPD-1; not shown: five-stranded coiled coil domain of cartilage oligomer matrix protein (Terskikh et al. 1997), fused to the C-terminus
- ratio of cells that bound to PD-1-EC (human PD-L1 [3]): ~50%

B5: soluble mouse PD-1 extracellular region (PD-1-EC) protein (receptor)
chain: LEVPNGPWRSLTFYPAWLTVSEGANATFTCSLSNWSEDLMLNWNRLSPSNQTEKQAAFCNGLSQPVQDARFQIIQLPNRHDFHMNILDTRRNDSGIYLCGAISLHPKAKIEESPGAELVVTERILETSTRYPSPSPKPEGRFQDYKDDDDK
notes: domain: five-stranded coiled coil domain; Soluble chimeric protein from 293T or Plat-E culture supernatant; also called mouse PD-1-EC; mPD-1; not shown: five-stranded coiled coil domain of cartilage oligomer matrix protein (Terskikh et al. 1997), fused to the C-terminus
- binding result (mouse CD80): no binding
- amount of binding (mean fluorescence intensity) after TKMG48 pretreatment relative to control IgG pretreatment (mouse PD-L1 [4]): ~10.1 times

B6: human CD80 (ligand)
chain: VIHVTKEVKEVATLSCGHNVSVEELAQTRIYWQKEKKMVLTMMSGDMNIWPEYKNRTIFDITNNLSIVILALRPSDEGTYECVVLKYEKDAFKREHLAEVTLSVKADFPTPSISDFEIPTSNIRRIICSTSGGFPEPHLSWLENGEELNAINTTVSQDPETELYAVSSKLDFNMTTNHSFMCLIKYGHLRVNQTFNWNTTKQEHFPDNLLPSWAITLISVNGIFVICCLTYCFAPRCRERRRNERLRRESVRPV
notes: Expressed on IIAdL1, DOdKO or DOdPD cells; also called hCD80
- binding result (human PD-L1 [5]): binds

B7: human CD80L104E mutant (ligand)
chain: B6 chain with L70E
- binding result (human PD-L1 [6]): no binding

B8: human CD80 mutant (having I92E and L104E mutations) lacking the ability to bind to human PD-L1 (ligand)
chain: B6 chain with I58E, L70E
- binding result (human PD-L1 [7]): no binding

B9: human CD80I92E (ligand)
chain: B6 chain with I58E
- binding result (human PD-L1 [6]): no binding

— patent publication US20260242482A1 (ONO PHARMACEUTICAL, published 2026)
